Measured values from patent US20070213269.

Key:
[1] = system: PBS1 (synthetic); experiment: EMSA
[2] = system: PBS2 (synthetic); experiment: EMSA
[3] = system: PBS1a (synthetic); experiment: EMSA
[4] = system: KRAB-PBS1a (synthetic); experiment: cell_activity; conditions: with Tat
[5] = system: KRAB-PBS1 (synthetic); experiment: cell_activity; conditions: with Tat
[6] = system: KRAB-PBS2 (synthetic); experiment: cell_activity; conditions: for activity (fold repression): with Tat
[7] = system: PBS3 (synthetic); experiment: EMSA

## AAATCTCTAGCAGTGGCG [HIV-1 PBS hairpin, PBS1 site]
[1]
  Kd: 0.79 nM

## GCAGTGGCGCCCGAACAG [HIV-1 PBS hairpin, PBS2 site]
[2]
  Kd: 2.4 nM

## GTGTGGAAAATCTCTAGCAGTGGCG [HIV-1 PBS hairpin, PBS1a site]
[3]
  Kd: 1.25 nM

## HIV-1 LTR-luciferase reporter (LTR658-luc)
[4]; HeLa
  activity (fold repression): 9.5
[5]; HeLa
  activity (fold repression): 20
[6]; HeLa
  activity (fold repression): 28

## HIV-1 with wild-type B-subtype LTR
[6]; transduced PBMCs, NL4-3 challenge
  activity (% inhibition of virus production): > 90

## TGGCGCCCGAACAGGGAC [HIV-1 PBS hairpin, PBS3 site]
[7]
  Kd: 0.93 nM

## chromosomally integrated HIV-1 LTR reporter (TZM-bl)
[4]; TZM-bl luciferase
  activity (fold repression): 15
[5]; TZM-bl luciferase
  activity (fold repression): 7
[6]; TZM-bl luciferase
  activity (fold repression): 20
